Two molecules from PMC10398351, “Structural and molecular insight into antibody recognition of dynamic neoepitopes in membrane tethered MUC1 of pancreatic cancer cells and secreted exosomes†” (RSC Chemical Biology, 2023) can be followed below.

One experiment addresses T1, PANC-1 cell surface MUC1 (Homo sapiens, PANC-1 cells, UniProt P15941, O-glycans ST, T and/or Tn at the Thr of the Asp-Thr-Arg region, as the paper concludes).
T1 construct: MUC1, type 1 single-pass transmembrane mucin, endogenous in the human pancreatic cancer cell line PANC-1 (ATCC CRL-1469); also called endogenous MUC1 TRD; membrane-tethered MUC1; source: endogenous, on PANC-1 cells
Nature of the experiment: flow cytometry on cells; PANC-1 cells with Alexa 488 conjugated SN-131, 2 h on ice in PBS/EDTA, without or with 10 μM MUC1-5ST (8). The conditions noted are these: one partner purified.

The target in experiment [1] is T2, MUC1 TRD on exosomes released from PANC-1 cells (Homo sapiens, PANC-1 exosomes, UniProt P15941).
T2 construct: also called exosomal MUC1 TRD-STs; cargo MUC1 TRD; source: endogenous, exosomes isolated by ultracentrifugation from PANC-1 culture supernatant
The experiment can be described thus: ELISA; sandwich: exosomes from PANC-1 cells captured by coated anti-CD9 or anti-CD63 mAb, detected with AP-labelled SN-131 (1 μg/mL), room temperature. The conditions noted are these: one partner purified.

T1 sequence (P15941 24-1255): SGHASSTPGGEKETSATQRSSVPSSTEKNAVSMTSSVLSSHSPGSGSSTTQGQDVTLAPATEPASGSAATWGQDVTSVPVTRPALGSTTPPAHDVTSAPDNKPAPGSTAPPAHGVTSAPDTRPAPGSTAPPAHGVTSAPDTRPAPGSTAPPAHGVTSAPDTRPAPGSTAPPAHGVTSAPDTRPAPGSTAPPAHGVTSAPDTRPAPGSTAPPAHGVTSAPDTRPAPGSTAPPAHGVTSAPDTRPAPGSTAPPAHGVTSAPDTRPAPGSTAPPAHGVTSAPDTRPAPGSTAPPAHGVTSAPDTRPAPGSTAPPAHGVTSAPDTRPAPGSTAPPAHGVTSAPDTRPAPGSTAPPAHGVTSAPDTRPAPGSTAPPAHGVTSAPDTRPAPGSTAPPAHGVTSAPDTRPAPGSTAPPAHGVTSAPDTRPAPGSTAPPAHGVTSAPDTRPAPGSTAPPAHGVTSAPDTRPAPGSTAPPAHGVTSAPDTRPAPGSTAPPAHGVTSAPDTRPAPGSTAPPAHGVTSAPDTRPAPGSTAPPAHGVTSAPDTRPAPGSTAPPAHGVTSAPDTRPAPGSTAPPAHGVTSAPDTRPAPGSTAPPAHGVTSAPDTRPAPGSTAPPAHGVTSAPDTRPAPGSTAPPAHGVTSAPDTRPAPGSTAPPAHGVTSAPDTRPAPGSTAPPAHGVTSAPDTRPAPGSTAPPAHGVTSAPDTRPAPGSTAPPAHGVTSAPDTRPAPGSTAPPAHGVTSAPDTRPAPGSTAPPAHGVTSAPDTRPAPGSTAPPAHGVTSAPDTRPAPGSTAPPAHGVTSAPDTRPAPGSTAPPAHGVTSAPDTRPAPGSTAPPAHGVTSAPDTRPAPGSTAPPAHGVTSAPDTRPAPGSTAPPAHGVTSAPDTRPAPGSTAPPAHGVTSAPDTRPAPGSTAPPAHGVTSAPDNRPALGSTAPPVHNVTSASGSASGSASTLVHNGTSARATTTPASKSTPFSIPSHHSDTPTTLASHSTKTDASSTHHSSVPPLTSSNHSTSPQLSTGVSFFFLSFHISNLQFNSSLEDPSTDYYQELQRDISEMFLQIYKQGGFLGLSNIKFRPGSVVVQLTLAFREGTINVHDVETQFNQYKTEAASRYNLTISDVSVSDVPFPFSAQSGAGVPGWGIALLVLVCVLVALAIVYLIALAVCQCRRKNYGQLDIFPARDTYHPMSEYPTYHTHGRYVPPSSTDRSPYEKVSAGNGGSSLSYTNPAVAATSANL
T2 sequence (P15941 24-1255): as above

B1: Alexa488-conjugated SN-131 (antibody, V domains shown)
VH: QVQLQQSGAELARPGASVKLSCKASGYTFTNYGLSWVKQRTGQGLEWIGENHPGSGIIYHNEKFRGKATLTADKSSSTAYVQLSSLTSEDSAVYFCARSSGTRGFAYWGQGTLVTVSA
VL: DVLMTQTPLSLPVSLGDQASISCRSSQSIVHSNGNTYLEWYLQKPGQSPKLLIYKVSNRFSGVPDRFSGSGSGTDFTLKISRVEAEDLGVYYCFQGSHGPWTFGGGTKLEIK
notes: as the heavy chain of m1; Fab chains in PDB 8HRH; as the light chain of m1; IgG2a
For the molecule B1, the binding result with PANC-1 cell surface MUC1 is given as “binds”.

B2: AP (alkaline phosphatase) labelled SN-131 mAb (antibody, V domains shown)
VH: B1 VH
VL: B1 VL
notes: as for B1
As to B2, the binding result in experiment [1] was “binds”.
